What was measured:
[1] = target: T1, ctPan2 Δ343–352 (PID deletion in full-length ctPan2) (Chaetomium thermophilum, UniProt G0SAK8 1-1170, Δ343–352); experiment: SEC; separately purified ctPan2 constructs and ctPan3 PKC dimer mixed 1:1 at 1 μM, 15 min at room temperature; Superdex 200 Increase 3.2/300 in 20 mM Tris pH 8.0, 500 mM NaCl, 2 mM TCEP; fractions on SDS–PAGE; conditions: both partners purified
T1 sequence (looked up): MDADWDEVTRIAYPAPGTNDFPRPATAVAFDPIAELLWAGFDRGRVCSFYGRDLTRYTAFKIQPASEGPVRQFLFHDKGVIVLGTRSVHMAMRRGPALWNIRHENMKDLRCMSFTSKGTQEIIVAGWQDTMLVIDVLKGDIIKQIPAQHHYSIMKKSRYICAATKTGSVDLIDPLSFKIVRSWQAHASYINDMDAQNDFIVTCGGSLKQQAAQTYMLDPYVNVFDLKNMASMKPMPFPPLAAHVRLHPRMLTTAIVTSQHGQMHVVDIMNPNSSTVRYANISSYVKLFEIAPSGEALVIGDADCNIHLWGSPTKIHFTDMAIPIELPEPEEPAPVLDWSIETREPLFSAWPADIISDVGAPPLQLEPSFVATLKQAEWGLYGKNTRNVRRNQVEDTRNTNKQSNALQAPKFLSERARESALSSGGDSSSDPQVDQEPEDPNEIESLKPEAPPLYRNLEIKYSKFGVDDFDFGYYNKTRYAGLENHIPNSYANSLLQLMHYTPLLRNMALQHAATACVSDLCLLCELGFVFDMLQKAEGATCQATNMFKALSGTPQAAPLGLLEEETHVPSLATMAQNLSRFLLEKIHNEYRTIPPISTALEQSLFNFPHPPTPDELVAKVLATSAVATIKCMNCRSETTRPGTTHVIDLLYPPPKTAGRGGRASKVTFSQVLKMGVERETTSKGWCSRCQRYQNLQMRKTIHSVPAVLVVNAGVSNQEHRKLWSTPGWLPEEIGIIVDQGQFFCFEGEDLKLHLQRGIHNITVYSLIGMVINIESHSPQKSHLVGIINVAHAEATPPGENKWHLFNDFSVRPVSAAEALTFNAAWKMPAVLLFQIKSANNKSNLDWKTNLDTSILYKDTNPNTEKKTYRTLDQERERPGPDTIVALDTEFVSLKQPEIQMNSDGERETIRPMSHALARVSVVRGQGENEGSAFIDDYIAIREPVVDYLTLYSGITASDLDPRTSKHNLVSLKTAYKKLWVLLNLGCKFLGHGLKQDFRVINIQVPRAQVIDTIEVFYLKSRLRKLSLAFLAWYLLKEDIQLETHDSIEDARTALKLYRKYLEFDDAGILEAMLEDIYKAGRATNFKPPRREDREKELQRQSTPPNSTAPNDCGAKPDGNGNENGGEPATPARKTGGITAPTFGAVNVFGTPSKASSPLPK

[2] = target: T2, ctPan2 Δ353–375 (PID deletion in full-length ctPan2) (Chaetomium thermophilum, UniProt G0SAK8 1-1170, Δ353–375); experiment: as above; conditions: both partners purified
T2 construct: Pan2, Chaetomium thermophilum, full-length context with an internal deletion of residues 353-375
T2 sequence (looked up): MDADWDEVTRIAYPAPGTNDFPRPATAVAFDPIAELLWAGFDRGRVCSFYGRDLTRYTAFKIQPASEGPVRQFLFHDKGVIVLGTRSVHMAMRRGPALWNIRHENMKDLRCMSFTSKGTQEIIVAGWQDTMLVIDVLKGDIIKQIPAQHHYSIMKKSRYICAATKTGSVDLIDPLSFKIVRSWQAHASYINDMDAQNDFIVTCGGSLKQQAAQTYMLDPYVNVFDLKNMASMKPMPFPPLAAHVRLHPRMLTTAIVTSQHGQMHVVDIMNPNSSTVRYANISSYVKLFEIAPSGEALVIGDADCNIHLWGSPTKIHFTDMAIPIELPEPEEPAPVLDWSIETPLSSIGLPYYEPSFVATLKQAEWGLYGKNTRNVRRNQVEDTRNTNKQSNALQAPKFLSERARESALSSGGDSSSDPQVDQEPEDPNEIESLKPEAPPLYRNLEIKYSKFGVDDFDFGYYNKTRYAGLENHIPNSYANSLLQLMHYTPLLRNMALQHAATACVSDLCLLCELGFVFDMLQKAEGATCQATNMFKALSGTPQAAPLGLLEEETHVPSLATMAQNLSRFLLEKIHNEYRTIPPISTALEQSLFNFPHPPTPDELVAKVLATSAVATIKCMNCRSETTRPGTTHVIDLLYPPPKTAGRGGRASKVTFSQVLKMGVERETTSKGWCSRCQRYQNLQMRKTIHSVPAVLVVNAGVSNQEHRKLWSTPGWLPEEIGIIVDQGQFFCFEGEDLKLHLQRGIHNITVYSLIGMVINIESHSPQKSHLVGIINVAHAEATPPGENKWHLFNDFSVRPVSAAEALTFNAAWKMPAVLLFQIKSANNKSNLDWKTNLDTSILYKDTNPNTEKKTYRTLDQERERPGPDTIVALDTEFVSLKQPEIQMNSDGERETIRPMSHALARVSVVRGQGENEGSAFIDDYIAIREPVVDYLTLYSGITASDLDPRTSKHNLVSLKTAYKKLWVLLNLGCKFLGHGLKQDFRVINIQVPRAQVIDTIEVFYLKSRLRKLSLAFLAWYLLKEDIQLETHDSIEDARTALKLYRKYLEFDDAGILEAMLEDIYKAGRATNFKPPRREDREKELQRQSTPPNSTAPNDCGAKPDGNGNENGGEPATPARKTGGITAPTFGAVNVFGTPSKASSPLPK

binding result [1]: binds
binding result [2]: binds
B1: ctPan3 pseudokinase/C-terminal domain (PKC, residues 205–640), purified from E. coli (domain or fragment, Chaetomium thermophilum, UniProt G0S0Y3 205-640, looked up)
chain: RQELQPWQRATYDFFMPQNLREDLQKKQFATLQVIPNSGLPQLEHWHSLVPLDTSNRKNTSCFGYPSWVYKAQNSRNGRHYALRRLEGYRLTNEKAILNVMKDWKKIKNASIVTIHEVFTTREFGDSSLIFAYDFHPLSKTLQEHHFQPIHGNRYRPPPAVPENTIWGYICQIANALKTIHSNRLAARCLEPSKIILTDINRIRLSACAILDVVQFGMNSRSVVELQQEDFVKFGKLILSLATGTLPAHLNNIPAALETLGNKYSANLKSAVNWLLDTSSGETKTIEHFMTGIASQMTTFFDLALQDNDEKLFHLAREVENGRIARSLMKLLTILERGDYDGVPSWSETGDRYQLKLFRDYVFHRVDADGKPNLSIGHMLTCMSKLEAGVDENILLTSRDNETVFVLSYRELRQMYDRAFNELVKASKTGAPGANT
notes: Pan3, Chaetomium thermophilum, pseudokinase (242-497), coiled coil (499-538) and C-terminal domain (555-640), construct residues 205-640; The crystals of ctPan3 PKC alone (PDB 4CYI) were of Se-Met-labelled protein; also called ctPan3 PKC; ctPan3 PKC dimer; source: E. coli, purified (glutathione Sepharose)
